Laboratory results as given in patent publication US20230414590.

Target: T1, iron-sulfur cluster assembly (ISCU) protein, Q9H1K1
T1 chain: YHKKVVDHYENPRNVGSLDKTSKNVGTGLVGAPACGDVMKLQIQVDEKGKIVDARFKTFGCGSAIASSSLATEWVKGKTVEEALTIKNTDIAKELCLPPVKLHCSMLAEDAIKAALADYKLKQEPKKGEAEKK

B1: glutathione S-transferase P (GSTP1) (protein)
chain: PPYTVVYFPVRGRCAALRMLLADQGQSWKEEVVTVETWQEGSLKASCLYGQLPKFQDGDLTLYQSNTILRHLGRTLGLYGKDQQEAALVDMVNDGVEDLRCKYISLIYTNYEAGKDDYVKALPGQLKPFETLLSQNQGGKTFIVGDQISFADYNLLDLLLIHEVLAPGCLDAFPLLSAYVGRLSARPKLKAFLASPEYVNLPINGNGKQ
- ISCU glutathionylation (α-GSH immunoblot after α-ISCU immunoprecipitation) in PAECs with GSTP1 knockdown: with GSTP1 knockdown, α-ISCU immunoprecipitation revealed a concomitant reduction of GSTP1 pulldown and glutathionylated ISCU in favor of non-glutathionylated ISCU
